# Experimental data taken from paper PMC13456619, “The (Glg)ABCs of cyanobacteria: modelling of glycogen synthesis and functional divergence of glycogen synthases in Synechocystis sp. PCC 6803” (Febs Letters, 2026).
# B1: GlgA2 (Synechocystis sp. PCC 6803 substr. Kazusa) (protein)
# chain: MYIVQIASECAPVIKAGGLGDVIYGLSRELELRGHCVELILPMYDCMRYDHIWGLHDAYRNLEVPWYGSSIFCDVFCGWVHGRLCFFIQPKSSDNFFNRGHYYGALDDHMRFAFFSKAAMEFLLRSNKRPDIIHCHDWQTGLVPVLLYEIYRFHGMDHQRVCYTIHNFKHQGIAGANILHATGLNNDSYYFSYDRLQDNFNPNAINFMKGGIVYSNYVNTVSPHHAWEARFSDISCGLGHTLEIHQQKFGGILNGLDYEVWNPEIDPLLASNFSVKTFGDKAKNKQALRERLLLETDDKKPMLCFIGRLDGQKGVHLVHHSIYYALSQGAQFVLLGSATEPNLSKWFWHEKQHLNDNPNVHLELGFDEELAHLIYGAADIIVVPSNYEPCGLTQMIGLRYGAVPVVRGVGGLVNTVFDRDYDQNHPPEKRNGFVFYQPDEYALETALSRAIALYKDDPVAFKTLALQGMAYDYSWNKPGLQYVEAYEYIRA
# notes: full-length in pET28a, N-terminal His tag, expressed in E. coli, IMAC and anion exchange
# B2: GlgA^ E.coli (Escherichia coli K-12) (protein)
# chain: MQVLHVCSEMFPLLKTGGLADVIGALPAAQIADGVDARVLLPAFPDIRRGVTDAQVVSRRDTFAGHITLLFGHYNGVGIYLIDAPHLYDRPGSPYHDTNLFAYTDNVLRFALLGWVGAEMASGLDPFWRPDVVHAHDWHAGLAPAYLAARGRPAKSVFTVHNLAYQGMFYAHHMNDIQLPWSFFNIHGLEFNGQISFLKAGLYYADHITAVSPTYAREITEPQFAYGMEGLLQQRHREGRLSGVLNGVDEKIWSPETDLLLASRYTRDTLEDKAENKRQLQIAMGLKVDDKVPLFAVVSRLTSQKGLDLVLEALPGLLEQGGQLALLGAGDPVLQEGFLAAAAEYPGQVGVQIGYHEAFSHRIMGGADVILVPSRFEPCGLTQLYGLKYGTLPLVRRTGGLADTVSDCSLENLADGVASGFVFEDSNAWSLLRAIRRAFVLWSRPSLWRFVQRQAMAMDFSWQVAAKSYRELYYRLK
# notes: as for B1
# B3: GlgA1 (Synechocystis sp. PCC 6803 substr. Kazusa) (protein)
# chain: MKILFVAAEVSPLAKVGGMGDVVGSLPKVLHQLGHDVRVFMPYYGFIGDKIDVPKEPVWKGEAMFQQFAVYQSYLPDTKIPLYLFGHPAFDSRRIYGGDDEAWRFTFFSNGAAEFAWNHWKPEIIHCHDWHTGMIPVWMHQSPDIATVFTIHNLAYQGPWRGLLETMTWCPWYMQGDNVMAAAIQFANRVTTVSPTYAQQIQTPAYGEKLEGLLSYLSGNLVGILNGIDTEIYNPAEDRFISNVFDADSLDKRVKNKIAIQEETGLEINRNAMVVGIVARLVEQKGIDLVIQILDRFMSYTDSQLIILGTGDRHYETQLWQMASRFPGRMAVQLLHNDALSRRVYAGADVFLMPSRFEPCGLSQLMAMRYGCIPIVRRTGGLVDTVSFYDPINEAGTGYCFDRYEPLDCFTAMVRAWEGFRFKADWQKLQQRAMRADFSWYRSAGEYIKVYKGVVGKPEELSPMEEEKIAELTASYR
# notes: full-length, N-terminal His tag, expressed in E. coli, IMAC and anion exchange
# How the values were obtained:
# purified protein [1] = substrate: Nc1ncnc2c1ncn2[C@@H]1O[C@H](COP(=O)(O)OP(=O)(O)O[C@H]2O[C@H](CO)[C@@H](O)[C@H](O)[C@H]2O)[C@@H](O)[C@H]1O; test: purified protein; type: biochemical, Synechocystis sp. PCC 6803; conditions: 1 mg/mL bovine glycogen primer, 12 mM MgCl2, 50 mM HEPES-NaOH pH 8.0, 30 °C, no GlgB
# purified protein [2] = substrate: Nc1ncnc2c1ncn2[C@@H]1O[C@H](COP(=O)(O)OP(=O)(O)O[C@H]2O[C@H](CO)[C@@H](O)[C@H](O)[C@H]2O)[C@@H](O)[C@H]1O; test: purified protein; type: biochemical, Escherichia coli; conditions: 1 nM enzyme, 1 mg/mL bovine glycogen primer, 12 mM MgCl2, 50 mM HEPES-NaOH pH 8.0, 30 °C, no GlgB
Protein,Km (purified protein [1]) [µM],Km (purified protein [2]) [µM]
B1,219 ± 9.9,
B2,,275 ± 17
B3,152 ± 3.6,
